The assay has as its target GII.4 norovirus. Description: capture on a column of Con A-linked resin, real-time RT-PCR; the dilution applied held about 3.39 copies/µL; no Ct value in the non-Con A-linked resin. (In general: Quantitative PCR measures a nucleic acid by following its amplification.)

The text below walks through data of patent publication US20160090640A1.

On to “Concanavalin A (Con A) (Sigma-Aldrich, USA) (from UniProt P02866 30-281)”, for which the virus concentrated through the Con A-linked resin column came out at 2.16 copies/µL.
